Biological target: T1, wild-type Toll-like receptor 3 (TLR3), homo sapiens (homo sapiens) (UniProt O15455)
T1 sequence: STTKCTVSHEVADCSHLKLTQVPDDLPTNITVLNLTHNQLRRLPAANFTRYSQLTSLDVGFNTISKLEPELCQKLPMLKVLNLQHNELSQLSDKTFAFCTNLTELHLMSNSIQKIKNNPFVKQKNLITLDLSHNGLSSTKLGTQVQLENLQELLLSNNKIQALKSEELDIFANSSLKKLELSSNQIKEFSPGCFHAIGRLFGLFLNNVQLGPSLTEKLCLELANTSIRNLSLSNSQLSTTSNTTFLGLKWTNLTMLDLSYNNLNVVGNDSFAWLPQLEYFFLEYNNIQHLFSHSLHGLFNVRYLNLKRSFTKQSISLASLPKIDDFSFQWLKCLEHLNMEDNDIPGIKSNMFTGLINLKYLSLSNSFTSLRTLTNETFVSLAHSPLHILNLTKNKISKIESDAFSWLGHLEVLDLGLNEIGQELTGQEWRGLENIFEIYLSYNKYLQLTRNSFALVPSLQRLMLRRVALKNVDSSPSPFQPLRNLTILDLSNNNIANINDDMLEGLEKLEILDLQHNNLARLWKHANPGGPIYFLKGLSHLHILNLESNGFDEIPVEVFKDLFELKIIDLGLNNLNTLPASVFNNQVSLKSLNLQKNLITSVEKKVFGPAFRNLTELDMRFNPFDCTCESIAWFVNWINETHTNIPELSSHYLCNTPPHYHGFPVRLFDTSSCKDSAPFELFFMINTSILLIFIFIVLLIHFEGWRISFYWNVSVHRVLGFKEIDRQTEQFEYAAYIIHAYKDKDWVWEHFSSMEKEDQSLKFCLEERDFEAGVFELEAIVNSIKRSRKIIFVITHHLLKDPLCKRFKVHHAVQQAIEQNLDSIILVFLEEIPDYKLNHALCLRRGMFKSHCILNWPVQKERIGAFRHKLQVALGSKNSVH
Experiment: cell-based or functional assay

Row | Substance | wild-type TLR3 activity with the mutant at six molar excess of WT (dominant negative assay) [%] | also measured
1 | ΔTIR, dominant negative version of TLR3 that lacks the TIR domain (from UniProt O15455 24-753) (receptor) | 14 | wild-type TLR3 activity (NF-kB luciferase reporter, poly(I:C) induced) with the mutant at 2-fold molar excess, relative to empty vector: 26%; wild-type TLR3 activity (NF-kB luciferase reporter, poly(I:C) induced) with the mutant at 6-fold molar excess, relative to empty vector: 12%
2 | TLR3 mutant C696A (from UniProt O15455 24-904) (receptor) | 76 | 
3 | TLR3 mutant E442K (from UniProt O15455 24-904) (receptor) |  | wild-type TLR3 activity with the mutant at six molar excess to the WT (dominant negative assay): 51%
4 | TLR3 mutant C37A (from UniProt O15455 24-904) (receptor) | 61 | 
5 | K467EΔTIR, TLR3 mutant K467E lacking the TIR domain (from UniProt O15455 24-753) (receptor) |  | wild-type TLR3 activity with the mutant at six fold molar excess (dominant negative assay): 27%

Now from value to substance, other results behind:

Row | wild-type TLR3 activity with the mutant at six molar excess of WT (dominant negative assay) [%] | Substance | also measured
6 | 17 | TLR3 mutant N466A (from UniProt O15455 24-904) (receptor) | 
7 | 16 | TLR3 mutant H539E (from UniProt O15455 24-904) (receptor) | 
